Experimental data taken from publication PMC6735921.
Like-named read-outs stand apart in the source and are kept apart here.

Legend:
[1] = biological target: T1, VEGF165 (VEGF-A isoform 165) (UniProt P15692-4 27-191); experiment: EMSA
[2] = biological target: T1, VEGF165 (VEGF-A isoform 165); experiment: EMSA; remark: listed apart in the source

| Binder | binding result [1] | binding result [2] |
| --- | --- | --- |
| TGTGGGGGTGGACGGGCCGGGTAGA (structured_DNA) [V7t1 dimer (purified SE-HPLC peak 1)] | binds | – |
| TGTGGGGGTGGACGGGCCGGGTAGA (structured_DNA) [V7t1 not-annealed (about 73% dimer, 26% monomer)] | – | binds |
